Results on 7 molecules are retold here after article PMC8226452, “PESIN Conjugates for Multimodal Imaging: Can Multimerization Compensate Charge Influences on Cell Binding Properties? A Case Study” (Pharmaceuticals, 2021).

Read-outs that look alike come from different tables or passages of the source.

Data set [1] can be described thus: logD by partition between n-octanol and aqueous solution at pH 7.4. It counts as physicochemical. On the procedure: For the ^68Ga-labeled agents [^68Ga]Ga-2, [^68Ga]Ga-3, [^68Ga]Ga-5, and [^68Ga]Ga-6, and the dyes NIR-820 and 1, the logD values were determined by partition experiments between n-octanol and aqueous solution at pH 7.4.
Determination of logD. The n-octanol/water partition coefficient (logD) of [^68Ga]Ga-2, [^68Ga]Ga-3, [^68Ga]Ga-5, and [^68Ga]Ga-6 was determined as previously described. In brief, 5 µL of the respective radiolabeled product solutions were added to a mixture of n-octanol (800 µL) and phosphate buffered solution (0.05 M, pH 7.4, 795 µL) and vigorously shaken for 5 min. After separation of the phases by centrifugation, 100 µL of each phase was taken and measured in a γ-counter.

Experiment in data set [2]: not given
This is another data set of the same source.

Data set [3] concerns the target T1, gastrin-releasing peptide receptor (GRPR) (Homo sapiens, UniProt P30550).
T1 construct: host or cells: HEK-293 (human embryonic kidney) cells, stably GRPR-transfected
Nature of the data set: Competitive displacement assay with [125I]I-Tyr4-bombesin on stably GRPR-transfected HEK-293 cells. Particulars: 10^5 GRPR-transfected HEK-293 cells per well; radioligand [125I]I-Tyr4-bombesin; 11 competitor concentrations (0.25-500 nM for 5 and 6, 0.1-250 nM for BBN); 1 h at ambient temperature; γ-counting; nonlinear regression; at least three experiments, each in triplicate; read-out: IC50 (GRPR binding affinity).
Experimental: Human embryonic kidney 293 cells, stably expressing the GRP receptor (GRPR HEK-293 cells), were obtained from Dr. Martin Béhé, Paul Scherrer Institute, Villingen, Switzerland. Cells were cultured using Dulbecco’s modified Eagle’s medium (DMEM, high glucose, GlutaMax-I, 500 mL), geneticin (G418 Sulfate, 50 mg/mL), Opti-MEM I (GlutaMAX I), RPMI 1640 medium and PenStrep from Gibco, fetal calf serum (FCS) from Bio&sell (Feucht, Germany) and Dulbecco’s phosphate buffered saline (PBS), 0.25% Trypsin and 0.02% EDTA solution in PBS from Sigma-Aldrich (Darmstadt, Germany).
Competitive Receptor Binding Assay. The assays were carried out on stably GRPR-transfected HEK-293 cells as described previously [26, 27]. In brief, 50 µL of a cell suspension containing 10^5 cells was seeded in each well of a Millipore 96-well filter plate. […] After one hour of incubation at ambient temperature, the suspension was filtered and the cells washed thrice with cold PBS. The filter was punched out and measured by γ-counting. […] IC50 values were obtained from at least three different experiments, each performed in triplicate.

The mark [4] stands for this setting: shake-flask, n-octanol (800 µL)/phosphate buffered solution (0.05 M, pH 7.4, 795 µL), 5 µL of 68Ga-labeled product solution, shaken 5 min, centrifugation, 100 µL of each phase measured in γ-counter, read-out: logD (n-octanol/water partition coefficient).

A word on the IC50: it is the midpoint of a concentration-inhibition curve.

T1 sequence (P30550 whole entry, species assumed): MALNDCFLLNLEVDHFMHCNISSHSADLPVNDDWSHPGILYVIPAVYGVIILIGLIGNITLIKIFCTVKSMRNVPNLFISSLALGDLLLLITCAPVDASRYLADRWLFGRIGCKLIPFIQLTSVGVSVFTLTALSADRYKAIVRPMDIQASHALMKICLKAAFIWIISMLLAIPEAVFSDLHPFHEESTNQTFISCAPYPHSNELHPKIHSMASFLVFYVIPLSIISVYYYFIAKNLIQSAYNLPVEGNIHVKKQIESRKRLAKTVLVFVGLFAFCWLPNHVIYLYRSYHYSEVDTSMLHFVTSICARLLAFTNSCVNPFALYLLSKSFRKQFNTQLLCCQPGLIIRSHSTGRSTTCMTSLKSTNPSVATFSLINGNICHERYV

Consider `CC1(C)C(/C=C/C2=C(c3ccccc3)C(=C/C=C3/N(CCCCS(=O)(=O)O)c4ccc(C(=O)NCCCC[C@H](NC(=O)CC[C@H](C(=O)O)N5CCN(CC(=O)O)CCN(CC(=O)O)CC5)C(=O)N[C@@H](CS)C(N)=O)cc4C3(C)C)/CCC2)=[N+](CCCCS(=O)(=O)[O-])c2ccc(C(=O)O)cc21` [[^68Ga]Ga-2, metal not drawn], for which the “logD (n-octanol/water partition coefficient)” value in data set [1] (pH 7.4) is given as −2.6 ± 0.1.
For `CC1(C)C(/C=C/C2=C(Cl)C(=C/C=C3\N(CCCCS(=O)(=O)[O-])c4ccc(C(=O)O)cc4C3(C)C)/CCC2)=[N+](CCCCS(=O)(=O)[O-])c2ccc(C(=O)O)cc21.[H+]` [NIR-820, reference compound], in data set [1] (unlabeled dyes, comparable n-octanol/water partition experiments at pH 7.4, HPLC analysis of the phases instead of γ-counting), the “logD (n-octanol/water partition coefficient)” value is recorded as −3.3 ± 0.7.
`CSCC[C@H](NC(=O)[C@H](CC(C)C)NC(=O)[C@H](Cc1c[nH]cn1)NC(=O)CNC(=O)[C@@H](NC(=O)[C@H](C)NC(=O)[C@H](Cc1c[nH]c2ccccc12)NC(=O)[C@H](CCC(N)=O)NC(=O)CCOCCOCCOCCOCCNC(=O)CO/N=C/c1ccc(C(=O)NCCCN(CCCNC(=O)c2ccc(/C=N/OCC(=O)NCCOCCOCCOCCOCCC(=O)N[C@@H](CCC(N)=O)C(=O)N[C@@H](Cc3c[nH]c4ccccc34)C(=O)N[C@@H](C)C(=O)N[C@H](C(=O)NCC(=O)N[C@@H](Cc3c[nH]cn3)C(=O)N[C@@H](CC(C)C)C(=O)N[C@@H](CCSC)C(N)=O)C(C)C)cc2)CC(=O)N[C@@H](CSC2CC(=O)N(CCN3C(=O)CC(SC[C@H](NC(=O)[C@H](CCCCNC(=O)c4ccc5c(c4)C(C)(C)C(/C=C/C4=C(c6ccccc6)C(=C/C=C6/N(CCCCS(=O)(=O)O)c7ccc(C(=O)O)cc7C6(C)C)/CCC4)=[N+]5CCCCS(=O)(=O)[O-])NC(=O)CC[C@H](C(=O)O)N4CCN(CC(=O)O)CCN(CC(=O)O)CC4)C(N)=O)C3=O)C2=O)C(=O)NCCOCCOCC(=O)O)cc1)C(C)C)C(N)=O` (stereo partly shown): the λmax(em) stood at 790 nm. Also, the Stokes Shift in data set [2] was 20 nm.
In turn, `CC1(C)C(/C=C/C2=C(c3ccccc3)C(=C/C=C3/N(CCCCS(=O)(=O)O)c4ccc(C(=O)NCCCC[C@H](NC(=O)CC[C@H](C(=O)O)N5CCN(CC(=O)O)CCN(CC(=O)O)CC5)C(=O)N[C@@H](CS)C(N)=O)cc4C3(C)C)/CCC2)=[N+](CCCCS(=O)(=O)[O-])c2ccc(C(=O)NCCCC[C@H](NC(=O)CC[C@H](C(=O)O)N3CCN(CC(=O)O)CCN(CC(=O)O)CC3)C(=O)N[C@@H](CS)C(N)=O)cc21` [[^68Ga]Ga-3, metal not drawn] returned a logD in data set [1] (pH 7.4) of -2.9 ± 0.1.
In the case of `CSCC[C@H](NC(=O)[C@H](CC(C)C)NC(=O)[C@H](Cc1c[nH]cn1)NC(=O)CNC(=O)[C@@H](NC(=O)[C@H](C)NC(=O)[C@H](Cc1c[nH]c2ccccc12)NC(=O)[C@H](CCC(N)=O)NC(=O)CCOCCOCCOCCOCCNC(=O)CO/N=C/c1ccc(C(=O)NCCCN(CCCNC(=O)c2ccc(/C=N/OCC(=O)NCCOCCOCCOCCOCCC(=O)N[C@@H](CCC(N)=O)C(=O)N[C@@H](Cc3c[nH]c4ccccc34)C(=O)N[C@@H](C)C(=O)N[C@H](C(=O)NCC(=O)N[C@@H](Cc3c[nH]cn3)C(=O)N[C@@H](CC(C)C)C(=O)N[C@@H](CCSC)C(N)=O)C(C)C)cc2)CC(=O)N[C@@H](CSC2CC(=O)N(CCN3C(=O)CC(SC[C@H](NC(=O)[C@H](CCCCNC(=O)c4ccc5c(c4)C(C)(C)C(/C=C/C4=C(c6ccccc6)C(=C/C=C6/N(CCCCS(=O)(=O)O)c7ccc(C(=O)NCCCC[C@H](NC(=O)CC[C@H](C(=O)O)N8CCN(CC(=O)O)CCN(CC(=O)O)CC8)C(=O)N[C@@H](CSC8CC(=O)N(CCN9C(=O)CC(SC[C@H](NC(=O)CN(CCCNC(=O)c%10ccc(/C=N/OCC(=O)NCCOCCOCCOCCOCCC(=O)N[C@@H](CCC(N)=O)C(=O)N[C@@H](Cc%11c[nH]c%12ccccc%11%12)C(=O)N[C@@H](C)C(=O)N[C@H](C(=O)NCC(=O)N[C@@H](Cc%11c[nH]cn%11)C(=O)N[C@@H](CC(C)C)C(=O)N[C@@H](CCSC)C(N)=O)C(C)C)cc%10)CCCNC(=O)c%10ccc(/C=N/OCC(=O)NCCOCCOCCOCCOCCC(=O)N[C@@H](CCC(N)=O)C(=O)N[C@@H](Cc%11c[nH]c%12ccccc%11%12)C(=O)N[C@@H](C)C(=O)N[C@H](C(=O)NCC(=O)N[C@@H](Cc%11c[nH]cn%11)C(=O)N[C@@H](CC(C)C)C(=O)N[C@@H](CCSC)C(N)=O)C(C)C)cc%10)C(=O)NCCOCCOCC(=O)O)C9=O)C8=O)C(N)=O)cc7C6(C)C)/CCC4)=[N+]5CCCCS(=O)(=O)[O-])NC(=O)CC[C@H](C(=O)O)N4CCN(CC(=O)O)CCN(CC(=O)O)CC4)C(N)=O)C3=O)C2=O)C(=O)NCCOCCOCC(=O)O)cc1)C(C)C)C(N)=O` (stereo partly shown) [[^68Ga]Ga-6, metal not drawn], the Stokes Shift in data set [2] was found to be 20 nm. Also, the logD in data set [1] (setting [4]) is -1.8 ± 0.1.
As for `CSCC[C@H](NC(=O)[C@H](CC(C)C)NC(=O)[C@H](Cc1c[nH]cn1)NC(=O)CNC(=O)[C@@H](NC(=O)[C@H](C)NC(=O)[C@H](Cc1c[nH]c2ccccc12)NC(=O)[C@H](CCC(N)=O)NC(=O)CCOCCOCCOCCOCCNC(=O)CO/N=C/c1ccc(C(=O)NCCCN(CCCNC(=O)c2ccc(/C=N/OCC(=O)NCCOCCOCCOCCOCCC(=O)N[C@@H](CCC(N)=O)C(=O)N[C@@H](Cc3c[nH]c4ccccc34)C(=O)N[C@@H](C)C(=O)N[C@H](C(=O)NCC(=O)N[C@@H](Cc3c[nH]cn3)C(=O)N[C@@H](CC(C)C)C(=O)N[C@@H](CCSC)C(N)=O)C(C)C)cc2)CC(=O)N[C@@H](CSC2CC(=O)N(CCN3C(=O)CC(SC[C@H](NC(=O)[C@H](CCCCNC(=O)c4ccc5c(c4)C(C)(C)C(/C=C/C4=C(c6ccccc6)C(=C/C=C6/N(CCCCS(=O)(=O)O)c7ccc(C(=O)O)cc7C6(C)C)/CCC4)=[N+]5CCCCS(=O)(=O)[O-])NC(=O)CC[C@H](C(=O)O)N4CCN(CC(=O)O)CCN(CC(=O)O)CC4)C(N)=O)C3=O)C2=O)C(=O)NCCOCCOCC(=O)O)cc1)C(C)C)C(N)=O` (stereo partly shown) [[^68Ga]Ga-5, metal not drawn], the logD in data set [1] (setting [4]) is -2.2 ± 0.1.
Turning to `CSCC[C@H](NC(=O)[C@H](CC(C)C)NC(=O)[C@H](Cc1c[nH]cn1)NC(=O)CNC(=O)[C@@H](NC(=O)[C@H](C)NC(=O)[C@H](Cc1c[nH]c2ccccc12)NC(=O)[C@H](CCC(N)=O)NC(=O)CCOCCOCCOCCOCCNC(=O)CO/N=C/c1ccc(C(=O)NCCCN(CCCNC(=O)c2ccc(/C=N/OCC(=O)NCCOCCOCCOCCOCCC(=O)N[C@@H](CCC(N)=O)C(=O)N[C@@H](Cc3c[nH]c4ccccc34)C(=O)N[C@@H](C)C(=O)N[C@H](C(=O)NCC(=O)N[C@@H](Cc3c[nH]cn3)C(=O)N[C@@H](CC(C)C)C(=O)N[C@@H](CCSC)C(N)=O)C(C)C)cc2)CC(=O)N[C@@H](CSC2CC(=O)N(CCN3C(=O)CC(SC[C@H](NC(=O)[C@H](CCCCNC(=O)c4ccc5c(c4)C(C)(C)C(/C=C/C4=C(c6ccccc6)C(=C/C=C6/N(CCCCS(=O)(=O)O)c7ccc(C(=O)O)cc7C6(C)C)/CCC4)=[N+]5CCCCS(=O)(=O)[O-])NC(=O)CC[C@H](C(=O)O)N4CCN(CC(=O)O)CCN(CC(=O)O)CC4)C(N)=O)C3=O)C2=O)C(=O)NCCOCCOCC(=O)O)cc1)C(C)C)C(N)=O` (stereo partly shown) [Compound 5], the “logD (n-octanol/water partition coefficient)” value in data set [1] (shake-flask, n-octanol (800 µL)/phosphate buffered solution (0.05 M, pH 7.4, 795 µL), 5 µL of 68Ga-labeled product solution, shaken 5 min, centrifugation, 100 µL of each phase measured in γ-counter) was −2.2 ± 0.1. Also, in data set [3], the IC50 was determined as 59.1 ± 1.49 nM.
